Measured values taken from the supplement of paper PMC9233669.
Fewer inactive variants are shown than the library holds.

What was measured:
biotinyl-Phe-oxazolone = assay: self-aminoacylation, catalytic enhancement (BFO) (fold over background); higher = more active; k-Seq, kA / k0A0; sequences stand for … in GGGAAUGGAUCCACAUCUACGAAUUC…UUCACUGCAGACUUGACGAAGCUG
Method in brief: (§1)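 The uncatalyzed rate is the low-activity peak of a bimodal Gaussian fit, and catalytic enhancement is median kA divided by it. The kA values came from pseudo-first-order fits, with 1000 bootstraps, of per-sequence fraction reacted measured by streptavidin capture, triplicate qPCR and Illumina sequencing. Mutagenized RNA pools with a 21-nt variable region (0.43 μM) were reacted with each biotinyl-aminoacyl-oxazolone at 2–1250 μM in 50 μL HEPES/NaCl/KCl/MgCl2/CaCl2 buffer with 5% acetonitrile, pH 6.9–7.0, for 90 minutes at room temperature.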

biotinyl-Ile-oxazolone = assay: self-aminoacylation, catalytic enhancement (BIO) (fold over background); higher = more active; k-Seq, kA / k0A0; sequences stand for … in GGGAAUGGAUCCACAUCUACGAAUUC…UUCACUGCAGACUUGACGAAGCUG
Method in brief: as §1

biotinyl-Met-oxazolone = assay: self-aminoacylation, catalytic enhancement (BMO) (fold over background); higher = more active; k-Seq, kA / k0A0; sequences stand for … in GGGAAUGGAUCCACAUCUACGAAUUC…UUCACUGCAGACUUGACGAAGCUG
Method in brief: as §1

biotinyl-Val-oxazolone = assay: self-aminoacylation, catalytic enhancement (BVO) (fold over background); higher = more active; k-Seq, kA / k0A0; sequences stand for … in GGGAAUGGAUCCACAUCUACGAAUUC…UUCACUGCAGACUUGACGAAGCUG
Method in brief: as §1

biotinyl-Leu-oxazolone = assay: self-aminoacylation, catalytic enhancement (BLO) (fold over background); higher = more active; k-Seq, kA / k0A0; sequences stand for … in GGGAAUGGAUCCACAUCUACGAAUUC…UUCACUGCAGACUUGACGAAGCUG
Method in brief: as §1

biotinyl-Trp-oxazolone = assay: self-aminoacylation, catalytic enhancement (BWO) (fold over background); higher = more active; k-Seq, kA / k0A0; sequences stand for … in GGGAAUGGAUCCACAUCUACGAAUUC…UUCACUGCAGACUUGACGAAGCUG
Method in brief: as §1

Sequence	self-aminoacylation (biotinyl-Phe-oxazolone)	self-aminoacylation (biotinyl-Ile-oxazolone)	self-aminoacylation (biotinyl-Met-oxazolone)	self-aminoacylation (biotinyl-Val-oxazolone)	self-aminoacylation (biotinyl-Leu-oxazolone)	self-aminoacylation (biotinyl-Trp-oxazolone)
CCACACUUCAAGCCCUCGGUC [Fam1B.1 aminoacylation ribozyme variant]	5.16	1.4	2.01	1.58	1.64	1.92
CCACACUUCAAGCGAUAGGUC [Fam1B.1 aminoacylation ribozyme variant]	0.743	0.605	0.471	0.642	0.543	0.453
CCACACUUCAAGCUAACGGUC [Fam1B.1 aminoacylation ribozyme variant]	0.79	0.568	0.532	0.78	0.444	0.546
CCACACUUCAAGCUACCGGUC [Fam1B.1 aminoacylation ribozyme variant]	0.832	1.23	0.931	1.3	1.2	0.946
CCACACUUCAAGCUAUCGGAC [Fam1B.1 aminoacylation ribozyme variant]	0.941	0.982	0.654	1.01	0.681	0.582
CCACACUUCAAGCUAUCGGUU [Fam1B.1 aminoacylation ribozyme variant]	0.942	1.29	1.18	1.43	1.12	0.897
CCACACUUCAAGCUUUCGGUC [Fam1B.1 aminoacylation ribozyme variant]	0.741	1.53	1.17	1.64	1.3	1.1
CCACACUUCAAGGAAUAGGUC [Fam1B.1 aminoacylation ribozyme variant]	0.627	0.526	0.489	0.514	0.478	0.5
CCACACUUCAAGGAAUUGGUC [Fam1B.1 aminoacylation ribozyme variant]	0.734	0.901	0.755	0.726	1.03	0.823
CCACACUUCAAGGACUCGGUC [Fam1B.1 aminoacylation ribozyme variant]	1.05	1.02	1.03	1.24	1.23	1.13
CCACACUUCAAGUAAUCCGUC [Fam1B.1 aminoacylation ribozyme variant]	0.9	1.06	1.1	1.06	0.839	1.16
CCACACUUCAAGUAAUCGGUA [Fam1B.1 aminoacylation ribozyme variant]	0.884	1.01	1.09	0.929	1.17	0.708
CCACACUUCAAGUAGUCGGUC [Fam1B.1 aminoacylation ribozyme variant]	0.856	0.96	0.857	0.865	0.92	0.919
CCACACUUCAAGUGAUCGGUC [Fam1B.1 aminoacylation ribozyme variant]	1.72	1.04	1.1	1.06	0.951	1.24
CCACACUUCAAUCAACCGGUC [Fam1B.1 aminoacylation ribozyme variant]	0.923	0.862	0.665	1.02	1.06	1.22
CCACACUUCAAUCAAUCGAUC [Fam1B.1 aminoacylation ribozyme variant]	1.25	0.523	0.463	0.609	0.512	0.592
CCACACUUCACGCAAUCAGUC [Fam1B.1 aminoacylation ribozyme variant]	0.704	0.823	0.662	0.731	0.673	0.962
CCACACUUCACGCAAUCUGUC [Fam1B.1 aminoacylation ribozyme variant]	0.436	0.481	0.472	0.678	0.447	0.464
CCACACUUCACGCCAUCGGUC [Fam1B.1 aminoacylation ribozyme variant]	1.28	1.59	1.31	2.13	1.51	2.05
CCACACUUCACGGAAUCGGUC [Fam1B.1 aminoacylation ribozyme variant]	1.01	1.16	1.14	1.39	1.65	0.915
CCACACUUCAGGCAACCGGUC [Fam1B.1 aminoacylation ribozyme variant]	1.64	1.89	1.61	1.95	1.38	1.27
CCACACUUCAGGCAAUCGGUU [Fam1B.1 aminoacylation ribozyme variant]	6.44	1.68	2.24	1.98	2.13	2.37
CCACACUUCAUCCAAUCGGUC [Fam1B.1 aminoacylation ribozyme variant]	0.689	0.883	0.811	0.912	0.854	0.581
CCACACUUCAUGCAACCGGUC [Fam1B.1 aminoacylation ribozyme variant]	0.916	0.996	0.943	0.981	0.795	0.752
CCACACUUCAUGCAAUCGGUA [Fam1B.1 aminoacylation ribozyme variant]	0.533	0.681	0.769	0.733	0.811	0.458
CCACACUUCAUGCAAUCGGUU [Fam1B.1 aminoacylation ribozyme variant]	0.766	1.2	1.33	1.26	1.37	0.843
